Measurements from patent US20040047860A1 (published 2004).

Experiments:
[1] = target: recombinant human MCP-1 (human) (UniProt P13500); assay: SPA, inhibition of (125-I)-MCP-1 binding to membranes of CCR2B expressing CHO cells (CHO#84), three independent experiments
[2] = target: recombinant human MCP-1 (human) (UniProt P13500); assay: BIAcore, 5 nM chemokine over ABN912, bound amount after 8 min
[3] = target: recombinant human MCP-1 (human) (UniProt P13500); assay: BIAcore, ABN912 immobilised, recombinant human MCP-1 in solution, n = 30
MCP-1 mutant K49A = target: T1, MCP-1 mutant K49A (human, UniProt P13500 24-99); assay: BIAcore, mutant MCP-1 (0.75 to 4 nM) over ABN912 captured on anti-Fcγ
T1 construct: also called K49 to alanine

rh MCP-4 = rh MCP-4 (human, UniProt Q99616 24-98); assay: BIAcore, 5 nM chemokine over ABN912, bound amount after 8 min, n = 3
rh MCP-2 = target: T2, rh MCP-2 (human, UniProt P80075 24-99); assay: as above
T2 sequence (looked up): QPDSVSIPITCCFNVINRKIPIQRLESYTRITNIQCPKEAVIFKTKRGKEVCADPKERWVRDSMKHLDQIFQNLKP

rh RANTES = target: T3, rh RANTES (human, UniProt P13501 24-91); assay: as above
T3 sequence (looked up): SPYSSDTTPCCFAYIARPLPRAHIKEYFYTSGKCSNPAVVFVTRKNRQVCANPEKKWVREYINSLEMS

rh LEC = target: T4, rh LEC (human, UniProt O15467 24-120); assay: as above
T4 sequence (looked up): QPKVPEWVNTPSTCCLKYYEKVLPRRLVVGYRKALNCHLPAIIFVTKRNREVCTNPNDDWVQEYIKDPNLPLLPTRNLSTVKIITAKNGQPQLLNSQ

[4] = target: T5, recombinant human eotaxin-1 (human, UniProt P51671 24-97); assay: as above
T5 construct: also called rh eotaxin

rh MIP-1α = target: T6, rh MIP-1α (human, UniProt P10147 27-92, limits assumed); assay: as above
T6 sequence (looked up): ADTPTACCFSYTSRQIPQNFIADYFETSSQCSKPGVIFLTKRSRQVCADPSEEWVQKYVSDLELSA

rh MIP-1β = target: T7, rh MIP-1β (human, UniProt P13236 24-92); assay: as above
T7 sequence (looked up): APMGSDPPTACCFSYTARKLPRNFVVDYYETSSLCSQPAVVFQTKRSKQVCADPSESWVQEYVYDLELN

rh MCP-3 = rh MCP-3 (human, UniProt P80098 24-99); assay: as above
Rec pig MCP-1 = Rec pig MCP-1 (pig, UniProt P42831 24-99); assay: as above
Rec mouse JE/MCP-1 = target: T8, Rec mouse JE/MCP-1 (mouse, UniProt P10148 24-96, limits assumed); assay: as above
T8 construct: also called mouse MCP-1

Rec rabbit MCP-1 = Rec rabbit MCP-1 (rabbit, UniProt P28292 24-125, limits assumed); assay: as above
Rec dog MCP-1 = Rec dog MCP-1 (dog, UniProt P52203 24-101); assay: as above
Rec rat MCP-1 = Rec rat MCP-1 (rat, UniProt P14844 24-148, limits assumed); assay: as above
Rec guinea pig MCP-1 = Rec guinea pig MCP-1 (guinea pig, UniProt Q08782 24-120, limits assumed); assay: as above
Rec guinea pig MCP-1, sequence (Q08782 24-120 limits assumed): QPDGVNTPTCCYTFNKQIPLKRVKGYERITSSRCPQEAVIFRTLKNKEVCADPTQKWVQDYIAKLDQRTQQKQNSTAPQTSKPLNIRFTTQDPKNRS

recombinant human MCP-1 (human), sequence (P13500 24-99 limits assumed): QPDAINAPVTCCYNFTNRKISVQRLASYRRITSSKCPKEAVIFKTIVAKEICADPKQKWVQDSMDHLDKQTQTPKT
rh MCP-4, sequence (Q99616 24-98 limits assumed): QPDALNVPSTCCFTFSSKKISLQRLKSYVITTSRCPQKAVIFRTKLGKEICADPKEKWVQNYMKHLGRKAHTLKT
Rec pig MCP-1, sequence (P42831 24-99 limits assumed): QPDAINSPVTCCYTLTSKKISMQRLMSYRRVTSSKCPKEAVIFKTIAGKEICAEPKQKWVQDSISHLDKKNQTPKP
T8 sequence (P10148 24-96 limits assumed): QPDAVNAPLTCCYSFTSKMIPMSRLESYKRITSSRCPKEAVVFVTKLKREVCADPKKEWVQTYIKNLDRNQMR
Rec rat MCP-1, sequence (P14844 24-148 limits assumed): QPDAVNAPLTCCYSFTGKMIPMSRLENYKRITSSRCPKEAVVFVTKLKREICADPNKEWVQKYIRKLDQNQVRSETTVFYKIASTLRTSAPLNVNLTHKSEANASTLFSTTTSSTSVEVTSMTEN
Rec dog MCP-1, sequence (P52203 24-101 limits assumed): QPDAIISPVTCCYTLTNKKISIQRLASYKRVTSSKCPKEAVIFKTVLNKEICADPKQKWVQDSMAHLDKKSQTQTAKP
T1 sequence (P13500 24-99 K72A limits assumed): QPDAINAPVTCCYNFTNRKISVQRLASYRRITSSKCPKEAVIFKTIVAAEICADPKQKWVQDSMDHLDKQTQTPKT
Rec rabbit MCP-1, sequence (P28292 24-125 limits assumed): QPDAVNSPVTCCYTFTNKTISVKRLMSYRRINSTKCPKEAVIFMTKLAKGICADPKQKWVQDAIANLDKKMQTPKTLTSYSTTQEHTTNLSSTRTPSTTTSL
T5 sequence (P51671 24-97 limits assumed): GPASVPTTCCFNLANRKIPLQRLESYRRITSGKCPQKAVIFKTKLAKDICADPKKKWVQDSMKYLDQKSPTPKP
rh MCP-3, sequence (P80098 24-99 limits assumed): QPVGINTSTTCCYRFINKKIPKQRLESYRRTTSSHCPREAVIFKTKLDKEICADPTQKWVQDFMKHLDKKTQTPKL

B1: ABN912 antibody (human IgG4/κ anti-human MCP-1 antibody) (antibody, V domains shown)
VH: EVQLVQSGGGLVQPGGSLRLSCAASGFTFSHYWMSWVRQAPGKGLEWLANIEQDGSEKYYVDSVKGRFTISRDNAKNSLYLQMNSLRAEDTAVYFCARDLEGLHGDGYFDLWGRGTLVTVSS
VL: AIQLTQSPSSLSASVGDRVILTCRASQGVSSALAWYQQKPGKAPKLLIYDASSLESGVPSRFSGSGSGPDFTLTISSLQPEDFATYFCQQFNSYPLTFGGGTKVEIK
Question: How did the IC50 [1] turn out when B1 was run?
Answer: 0.461 nM

Question: And the Binding to ABN912 (percent compared to recombinant human MCP-1) [2]?
Answer: 100%

Question: And the Percent binding of ABN912 (compared to recombinant human MCP-1) [2]?
Answer: 100%

Question: And the Kd [3]?
Answer: 0.043 nM

Question: And the koff [3]?
Answer: 0.0005 s⁻¹

Question: And the kon [3]?
Answer: 1.3e+07 M⁻¹ s⁻¹

Question: And the “fold decrease of affinity (against MCP-1)” value (MCP-1 mutant K49A)?
Answer: 133 fold

Question: And the “Binding to ABN912 (percent compared to recombinant human MCP-1)” value (rh MCP-4)?
Answer: -2.4%

Question: And the “Binding to ABN912 (percent compared to recombinant human MCP-1)” value (rh MCP-2)?
Answer: 6.2%

Question: What about the “Binding to ABN912 (percent compared to recombinant human MCP-1)” value (rh RANTES) of the same binder?
Answer: -2.7%

Question: And the “Binding to ABN912 (percent compared to recombinant human MCP-1)” value (rh LEC)?
Answer: -2.8%

Question: And the “Binding to ABN912 (percent compared to recombinant human MCP-1)” value [4]?
Answer: 52.6%

Question: And the “Binding to ABN912 (percent compared to recombinant human MCP-1)” value (rh MIP-1α)?
Answer: -2.8%

Question: And the “Binding to ABN912 (percent compared to recombinant human MCP-1)” value (rh MIP-1β)?
Answer: -2.9%

Question: And the “Binding to ABN912 (percent compared to recombinant human MCP-1)” value (rh MCP-3)?
Answer: 4.3%

Question: What about the “Percent binding of ABN912 (compared to recombinant human MCP-1)” value (“Percent binding of ABN912” below) (Rec pig MCP-1) of the same binder?
Answer: 0.5%

Question: What about the “Percent binding of ABN912” value (Rec mouse JE/MCP-1) of the same binder?
Answer: -0.4%

Question: What about the “Percent binding of ABN912” value (Rec rabbit MCP-1) of the same binder?
Answer: 0.9%

Question: And the “Percent binding of ABN912” value (Rec dog MCP-1)?
Answer: 1.3%

Question: And the “Percent binding of ABN912” value (Rec rat MCP-1)?
Answer: -0.2%

Question: And the “Percent binding of ABN912” value (Rec guinea pig MCP-1)?
Answer: 2.3%
